± gives the standard deviation of the averaged measurements.
Assay: total protein half-life in vivo (active degradation + dilution); higher = more stable protein
[1] = E. coli NCM3722 delta-clpP delta-lon delta-hslV, growth: N-lim chemostat, doubling time 6 h
[2] = E. coli NCM3722 delta-clpP, growth: N-lim chemostat, doubling time 6 h
[3] = E. coli NCM3722 delta-lon, growth: N-lim chemostat, doubling time 6 h
[4] = E. coli NCM3722 delta-smpB, growth: N-lim chemostat, doubling time 6 h
[5] = wild type E. coli NCM3722, growth: C-lim chemostat, doubling time 3 h
[6] = wild type E. coli NCM3722, growth: C-lim chemostat, doubling time 6 h
[7] = wild type E. coli NCM3722, growth: C-lim chemostat, doubling time 12 h
[8] = wild type E. coli NCM3722, growth: N-lim chemostat, doubling time 6 h
[9] = wild type E. coli NCM3722, growth: N-lim chemostat, doubling time 12 h
[10] = wild type E. coli NCM3722, growth: P-lim chemostat, doubling time 6 h
[11] = wild type E. coli NCM3722, growth: P-lim chemostat, doubling time 12 h
[12] = E. coli NCM3722 delta-hslV, growth: N-lim chemostat, doubling time 6 h

| Sequence | total protein half-life in vivo [1] | total protein half-life in vivo [2] | total protein half-life in vivo [3] | total protein half-life in vivo [4] | total protein half-life in vivo [5] | total protein half-life in vivo [6] | total protein half-life in vivo [7] | total protein half-life in vivo [8] | total protein half-life in vivo [9] | total protein half-life in vivo [10] | total protein half-life in vivo [11] | total protein half-life in vivo [12] |
| --- | --- | --- | --- | --- | --- | --- | --- | --- | --- | --- | --- | --- |
| MKTLIVSTVLAFITFSAQAAAFQVTSNEIKTGEQLTTSHVFSGFGCEGGNTSPSLTWSGVPEGTKSFAVTVYDPDAPTGSGWWHWTVVNIPATVTYLPVDAGRRDGTKLPTGAVQGRNDFGYAGFGGACPPKGDKPHHYQFKVWALKTEKIPVDSNSSGALVGYMLNANKIATAEITPVYEIK | 4.45 ± 0.4 h | 4.74 ± 0.75 h | 5.18 ± 0.93 h | 5.046 ± 0.013 h | 2.24 ± 0.28 h | 3.37 h | 7.12 ± 3.5 h | 6.15 ± 0.075 h | 10.9 ± 0.48 h | 6.28 ± 1.6 h | 10.3 ± 1.9 h | – |
| MPKKNEAPASFEKALSELEQIVTRLESGDLPLEEALNEFERGVQLARQGQAKLQQAEQRVQILLSDNEDASLTPFTPDNE [P0A8G9] | 7.56 h | 5.9 h | – | – | – | 6.16 ± 0.35 h | 14.4 h | 5.09 ± 0.59 h | – | 4.86 ± 0.049 h | 14.2 ± 1.7 h | 6.62 h |
| MKKVLIAALIAGFSLSATAAETIRFATEASYPPFESIDANNQIVGFDVDLAQALCKEIDATCTFSNQAFDSLIPSLKFRRVEAVMAGMDITPEREKQVLFTTPYYDNSALFVGQQGKYTSVDQLKGKKVGVQNGTTHQKFIMDKHPEITTVPYDSYQNAKLDLQNGRIDGVFGDTAVVTEWLKDNPKLAAVGDKVTDKDYFGTGLGIAVRQGNTELQQKLNTALEKVKKDGTYETIYNKWFQK | 5.31 ± 0.27 h | 5.44 ± 0.31 h | 7.11 ± 0.09 h | 6.01 ± 0.43 h | 3.16 ± 0.44 h | 5.9 ± 0.34 h | 11.55 ± 0.079 h | 5.64 ± 0.36 h | 12.2 ± 0.92 h | 6.04 ± 0.31 h | 12.2 ± 0.73 h | 6.55 ± 0.075 h |
| MLIPWQDLSPETLENLIESFVLREGTDYGEHERTLEQKVADVKRQLQCGEAVLVWSELHETVNIMPRSQFRE | 5.2 h | 3.21 h | 4.14 h | – | – | 3.93 h | – | – | – | 4.61 h | 7.98 h | – |
| MKKMMIATLAAASVLLAVANQAXAGATLDAVQKKGFVQCGISDGLPGFSYADADGKFSGIDVDICRGVAAAVFGDDTKVKYTPLTAKERFTALQSGEVDLLSRNTTWTSSRDAGMGMAFTGVTYYDGIGFLTHDKAGLKSAKELDGATVCIQAGTDTELNVADYFKANNMKYTPVTFDRSDESAKALESGRCDTLASDQSQLYALRIKLSNPAEWIVLPEVISKEPLGPVVRRGDDEWFSIVRWTLFAMLNAEEMGINSQNVDEKAANPATPDMAHLLGKEGDYGKDLKLDNKWAYNIIKQVGNYSEIFERNVGSESPLKIKRGQNNLWNNGGIQYAPPVR | 4.74 ± 0.45 h | – | – | – | – | – | – | – | – | – | – | – |
| MRYSKLTMLIPCALLLSACTTVTPAYKDNGTRSGPCVEGGPDNVAQQFYDYRILHRSNDITALRPYLSDKLATLLSDASRDNNHRELLTNDPFSSRTTLPDSAHVASASTIPNRDARNIPLRVDLKQGDQGWQDEVLMIQEGQCWVIDDVRYLGGSVHATAGTLRQSIENR | – | 5.61 ± 1.2 h | – | 6.06 ± 0.54 h | 2.89 ± 0.099 h | 6.3 ± 0.064 h | 12.9 ± 1 h | 6.03 ± 0.21 h | 12.6 ± 1.1 h | 6.22 ± 0.44 h | 13.7 ± 0.35 h | 6.1159 ± 0.0003 h |
| MKKMLLATALALLITGCAQQTFTVQNKQTAVAPKETITHHFFVSGIGQKKTVDAAKICGGAENVVKTETQQTFVNGLLGFITLGIYTPLEARVYCSK | 6.1 ± 0.25 h | 6.87 h | – | 6.05 ± 0.44 h | 3.42 ± 0.22 h | – | 9.62 ± 2.6 h | 6.71 ± 0.74 h | 12.4 ± 0.78 h | 6.65 ± 0.69 h | 14.7 ± 0.54 h | 6.21 h |
| MSAQKPGLHPRNRHHSRYDLATLCQVNPELRQFLTLTPAGEQSVDFANPLAVKALNKALLAHFYAVANWDIPDGFLCPPVPGRADYIHHLADLLAEASGTIPANASILDIGVGANCIYPLIGVHEYGWRFTGSETSSQALSSAQAIISSNPGLNRAIRLRRQKESGAIFNGIIHKNEQYDATLCNPPFHDSAAAARAGSERKRRNLGLNKDDALNFGGQQQELWCEGGEVTFIKKMIEESKGFAKQVMWFTSLVSRGENLPPLYRALTDVGAVKVVKKEMAQGQKQSRFIAWTFMNDEQRRRFVNRQR | 5.5 ± 0.76 h | 4.08 ± 0.18 h | 5.31 ± 0.52 h | 4.11 ± 0.72 h | 2.98 ± 0.11 h | 4.83 ± 0.83 h | 13.2 h | 4.81 ± 0.35 h | 7.46 ± 0.98 h | 5.28 ± 0.23 h | 10.5 ± 0.17 h | 5.27 ± 1.1 h |

Source: the supplement of paper PMC11246515
